Common to all, as to conditions: both partners purified
Test [1] deals with T1, radixin FERM domain (as used in FP) (human, UniProt P35241 5-295).
T1 construct: human radixin FERM domain, amino acids 5-295, synthetic gene in pETM33; source: E. coli BL21(DE3), purified (GSH sepharose)
As to the kind of experiment: fluorescence polarisation; direct binding: 5 nM FITC-labeled probe peptide titrated with FERM domain; 20 mM HEPES pH 7.4, 150 mM NaCl, 0.05% Tween-20, 3 mM DTT; quadratic equation for 1:1 binding. On the technique in general: Fluorescence polarisation rises when a labelled molecule tumbles more slowly, as on binding a larger partner.

Test [2] deals with T2, moesin FERM domain (UniProt P26038 2-295).
T2 construct: moesin FERM domain from pGEX4T Moesin FERM; also called WT moesin; source: E. coli BL21(DE3), purified (GSH sepharose, thrombin cleavage on beads, benzamidine column, gel filtration); not shown: GST, N-terminal, cleaved
As to the kind of experiment: fluorescence polarisation; competition: precomplex of FERM domain (2 x KD) and FITC-KIRREL3(637–652) probe, titrated with unlabeled peptide; constants printed as KD′; FP buffer.

The target in test [3] is T3, ezrin FERM domain (as used in FP) (UniProt P15311 2-296).
T3 construct: ezrin FERM domain from pGEX4T1 Ezrin FERM; source: E. coli BL21(DE3), purified (GSH sepharose)
The description is as above.

In test [4] the target is T1, radixin FERM domain (as used in FP). Described as above.
The target of test [5] is T4, merlin FERM domain (human, UniProt P35240 22-312).
T4 construct: human merlin (NF2) FERM domain, amino acids 22-312, synthetic gene in pETM33; source: E. coli BL21(DE3), purified (GSH sepharose, HRV3C cleavage, reverse Ni-IMAC); not shown: His, N-terminal, cleaved; GST, N-terminal, cleaved
T4 sequence (looked up): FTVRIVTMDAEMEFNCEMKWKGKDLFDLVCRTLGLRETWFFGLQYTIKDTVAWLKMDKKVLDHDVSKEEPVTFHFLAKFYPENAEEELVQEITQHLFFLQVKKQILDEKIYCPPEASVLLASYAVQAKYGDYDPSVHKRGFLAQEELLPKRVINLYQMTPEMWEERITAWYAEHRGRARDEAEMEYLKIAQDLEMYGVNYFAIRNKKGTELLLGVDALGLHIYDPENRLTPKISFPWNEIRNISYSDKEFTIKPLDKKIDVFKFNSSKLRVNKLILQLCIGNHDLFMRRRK
As to the kind of experiment: fluorescence polarisation; direct binding: 5 nM FITC-labeled probe peptide titrated with FERM domain; 20 mM HEPES pH 7.4, 150 mM NaCl, 0.05% Tween-20, 3 mM DTT; quadratic equation for 1:1 binding.

The target of test [6] is T5, Moesin FERM M285A/H288A (human, UniProt P26038 2-295, M285A | H288A).
T5 construct: moesin (P26038) FERM domain from pGEX4T Moesin FERM (Addgene plasmid # 1163); also called moesin FERM domain (M285A and H288A); moesin FERM M285/H288A; source: E. coli BL21(DE3), purified (GSH sepharose, thrombin cleavage, HiTrap benzamidine)
Description: fluorescence polarisation; direct binding: FITC-labeled probe peptide (5 nM) titrated with a dilution series of moesin FERM domain; 20 mM HEPES, pH 7.4, 150 mM NaCl, 0.05% Tween-20, 3 mM DTT; quadratic equation for 1:1 binding.

Test [7] has as its target T6, Moesin FERM K211A/I238A (human, UniProt P26038 2-295, K211A | I238A).
T6 construct: moesin (P26038) FERM domain from pGEX4T Moesin FERM (Addgene plasmid # 1163); also called moesin K211A/I238A; double mutant moesin FERM K211A/I238A; source: E. coli BL21(DE3), purified (GSH sepharose, thrombin cleavage, HiTrap benzamidine)
The test is described as above.

In test [8] the target is T2, moesin FERM domain. As to the kind of experiment: fluorescence polarisation; competition: precomplex of moesin FERM and FITC-ZNF622 probe, titrated with unlabeled peptide; constants printed as KD′; FP buffer (for HIF1A the text names FITC-NOP53 as probe, the table's footnote FITC-ZNF622).
Test [9] addresses T7, moesin FERM K211A/I238A (UniProt P26038 2-295, K211A | I238A).
T7 construct: moesin FERM domain from pGEX4T Moesin FERM, double mutant; tag removal is told for moesin FERM in FP in general; also called moesin K211A/I238A; source: E. coli BL21(DE3), purified; not shown: GST, N-terminal, cleaved
Description: fluorescence polarisation; direct binding: 5 nM FITC-labeled probe peptide titrated with FERM domain; 20 mM HEPES pH 7.4, 150 mM NaCl, 0.05% Tween-20, 3 mM DTT; quadratic equation for 1:1 binding.

Test [10] has as its target T8, moesin FERM M285A/H288A (UniProt P26038 2-295, M285A | H288A).
T8 construct: moesin FERM domain from pGEX4T Moesin FERM, double mutant; tag removal is told for moesin FERM in FP in general; also called moesin FERM M285/H288A; source: E. coli BL21(DE3), purified; not shown: GST, N-terminal, cleaved
The test is described as above.

No end group written: not given here. *: point of attachment. FITC = O=C1OC2(c3ccc(O)cc3Oc3cc(O)ccc32)c2ccc(NC(=S)*)cc21

Broadly, the Kd is the constant that tells how readily two partners part at equilibrium. Read a low Kd as higher affinity.

T5 sequence (P26038 2-295 M285A/H288A): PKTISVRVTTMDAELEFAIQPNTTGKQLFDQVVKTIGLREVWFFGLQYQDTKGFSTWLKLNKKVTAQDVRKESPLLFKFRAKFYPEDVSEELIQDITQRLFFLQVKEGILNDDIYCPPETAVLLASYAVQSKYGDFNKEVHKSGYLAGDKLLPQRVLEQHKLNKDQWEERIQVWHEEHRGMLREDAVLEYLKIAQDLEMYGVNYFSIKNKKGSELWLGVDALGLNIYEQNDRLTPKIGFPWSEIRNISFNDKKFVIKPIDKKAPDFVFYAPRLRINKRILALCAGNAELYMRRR
T6 sequence (P26038 2-295 K211A/I238A): as the sequence (P26038 2-295 M285A/H288A) above, with K210A, I237A, A284M, A287H counted along it
T1 sequence (P35241 5-295): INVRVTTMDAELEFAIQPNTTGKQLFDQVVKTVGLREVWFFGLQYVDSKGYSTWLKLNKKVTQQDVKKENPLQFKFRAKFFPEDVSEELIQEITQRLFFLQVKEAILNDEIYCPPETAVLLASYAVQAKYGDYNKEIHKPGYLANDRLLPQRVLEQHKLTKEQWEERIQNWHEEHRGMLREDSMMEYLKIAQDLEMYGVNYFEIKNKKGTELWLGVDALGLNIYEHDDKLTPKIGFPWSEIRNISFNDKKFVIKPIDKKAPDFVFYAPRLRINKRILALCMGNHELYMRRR
T2 sequence (P26038 2-295): as the sequence (P26038 2-295 M285A/H288A) above, with A284M, A287H counted along it
T3 sequence (P15311 2-296): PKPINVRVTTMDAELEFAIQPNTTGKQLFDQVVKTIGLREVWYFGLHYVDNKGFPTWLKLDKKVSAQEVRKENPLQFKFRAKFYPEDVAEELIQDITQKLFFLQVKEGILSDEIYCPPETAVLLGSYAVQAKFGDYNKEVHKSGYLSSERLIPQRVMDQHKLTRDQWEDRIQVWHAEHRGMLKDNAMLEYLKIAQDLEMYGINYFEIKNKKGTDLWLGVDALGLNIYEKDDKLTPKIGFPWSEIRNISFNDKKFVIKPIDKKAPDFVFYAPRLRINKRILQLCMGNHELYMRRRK
T8 sequence (P26038 2-295 M285A/H288A): as the sequence (P26038 2-295 M285A/H288A) above
T7 sequence (P26038 2-295 K211A/I238A): as the sequence (P26038 2-295 M285A/H288A) above, with K210A, I237A, A284M, A287H counted along it

B1: FITC-TBX4(428–443) peptide (peptide, UniProt P57082 428-443, looked up)
peptide: SYSVQTMETVPYQPFP
modifications: also: FITC label, position not given here
notes: T-box transcription factor TBX4, human, residues 428-443; source: synthetic peptide (GeneCust)
As to B1, the binding result in test [1] is “binds”.

B2: PDCD6IP(853–868) peptide (peptide)
peptide: SYPFPQPPQQSYYPQQ
notes: PDCD6IP, human, residues 853-868; source: synthetic peptide (GeneCust)
In test [2], B2 came in with an equilibrium dissociation constant (Kd) of 35.2 ± 0.2 µM.

B3: BOC(1000–1015) peptide (peptide)
peptide: LYTLPDDSTHQLLQPH
notes: BOC, human, residues 1000-1015; source: synthetic peptide (GeneCust)
For B3, the Kd in test [3] worked out at 8 ± 0.1 µM; in test [2], 18 ± 1 µM; in test [4], 17 ± 2 µM.

B4: FITC-LATS1(73–88) peptide (peptide)
peptide: THHKALQEIRNSLLPF
modifications: also: FITC label, position not given here
notes: LATS1, human, residues 73-88; also called LATS(73–88); source: synthetic peptide (GeneCust)
For the molecule B4, the binding result in test [1] and in test [5] was “binds” in each case.

B5: FITC-FAM83G(111–126) peptide (peptide, UniProt A6ND36 111-126, looked up)
peptide: AEPLPSLEYWPQKSDR
modifications: also: FITC label (position not given here)
notes: FAM83G, human, residues 111-126; source: synthetic peptide (GeneCust)
B5: the binding result in test [1] is on record as “binds”.

B6: RRBP1(1365–1380) peptide (peptide)
peptide: RAATRLQELLKTTQEQ
notes: RRBP1, human, residues 1365-1380; also called RRBP1 peptide; source: synthetic peptide (GeneCust)
In turn, B6 gave a Kd in [5] of 9.7 ± 0.8 µM.

B7: FITC-EBP50 343-358 peptide (peptide)
peptide: {FITC}-APQMDWSKKNELFSNL-OH
modifications: not fully specified
notes: also called NHERF1; source: synthetic peptide (GeneCust)
With B7, the figures for the Kd in test [6] and in [7] were 3.1 ± 0.2 µM and 114 ± 7 µM, respectively. For LEFADFYDFRSSYPDH (also: FITC label, position not given here, source: synthetic peptide (GeneCust)) [FITC-ZNF622 341-356 peptide], the Kd in test [6] was found to be 1.3 ± 0.1 µM; in [7], 46 ± 2 µM.

B8: FITC-NOP53 192-207 peptide (peptide)
peptide: FYDLWASDNPLDRPLV
modifications: also: FITC label, position not given here
notes: NOP53, residues 192-207; source: synthetic peptide (GeneCust)
For B8, the Kd in [6] came out at 2.2 ± 0.1 µM; in test [7] it was 42 ± 1 µM.

B9: FITC-LATS1 73-88 peptide (peptide)
peptide: THHKALQEIRNSLLPF
modifications: also: FITC label, position not given here
notes: LATS1, residues 73-88; source: synthetic peptide (GeneCust)
Regarding B9, the Kd in test [6] was 1.3 ± 0.1 µM; in test [7] it was 7.4 ± 0.5 µM.

As for YYSVNTFKEHHSTPTI (also: FITC label, position not given here, source: synthetic peptide (GeneCust)) [FITC-KIRREL3 637-652 peptide], the results for the Kd in test [6] and in [7] were 0.84 ± 0.05 µM and 0.17 ± 0.02 µM, respectively.

B10: FITC-TBX4 428-443 peptide (peptide)
peptide: SYSVQTMETVPYQPFP
modifications: also: FITC label, position not given here
notes: TBX4 (T-box transcription factor TBX4), residues 428-443; source: synthetic peptide (GeneCust)
In the case of B10, the Kd in [6] worked out at 6.9 ± 0.4 µM; in test [7] it was 2.17 ± 0.31 µM.

B11: FITC-ZNF622(341–356) peptide (peptide, UniProt Q969S3 341-356, looked up)
peptide: LEFADFYDFRSSYPDH
modifications: not fully specified (N-terminus); also: FITC label (position not given here)
notes: also called FITC-ZNZ622; source: synthetic peptide (GeneCust)
For B11, the binding result in test [1] and in test [5] was “binds” each time.

B12: RORA(185–200) peptide (peptide)
peptide: TYNISANGLTELHDDL
notes: RORA, human, residues 185-200; source: synthetic peptide (GeneCust)
In turn, B12 had a Kd in test [2] of 134 ± 3 µM.

B13: HIF1A(37–52) peptide (peptide)
peptide: FYELAHQLPLPHNVSS
notes: HIF1A, human, residues 37-52; source: synthetic peptide (GeneCust)
For the molecule B13, binding in [8] was put at a Kd of 3 ± 0.4 µM.

B14: CAMK2B(13–28) peptide (peptide)
peptide: EYQLYEDIGKGAFSVV
notes: CAMK2B, human, residues 13-28; source: synthetic peptide (GeneCust)
For B14, the figures for the Kd in test [3], in test [2] and in test [4] were 26 ± 0.6 µM, 96 ± 4 µM and 6.8 ± 0.4 µM, respectively.

B15: FITC-NOP53(192–207) peptide (peptide)
peptide: FYDLWASDNPLDRPLV
modifications: also: FITC label, position not given here
notes: NOP53, human, residues 192-207; source: synthetic peptide (GeneCust)
With B15, the binding result in test [1] and in test [5] was “binds” in each case. Take YYSVNTFKEHHSTPTI (peptide, UniProt Q8IZU9 637-652, looked up, also: FITC label, position not given here, source: synthetic peptide (GeneCust)) [FITC-KIRREL3(637–652) peptide]: the binding result in [1] is on record as “binds”.

B16: MISP(595–610) peptide (peptide)
peptide: ITGSYSVSESPFFSPI
notes: also called MISP3 peptide; source: synthetic peptide (GeneCust)
Molecule B16 came in with a Kd in test [2] of 2.3 ± 0.1 µM.

B17: ICAM3(516–531) peptide (peptide)
peptide: SGSYHVREESTYLPLT
notes: ICAM3, human, residues 516-531; source: synthetic peptide (GeneCust)
Turning to B17, the Kd in test [2] stood at 113 ± 3 µM. On to WSKKNELFSNL (peptide, UniProt O14745 348-358, looked up, also: FITC label, position not given here, source: synthetic peptide (GeneCust)) [FITC-EBP50(348–358) peptide], for which the binding result in [9], in test [10], in test [1] and in [5] was “binds” each time.

B18: LATS1(421–436) peptide (peptide)
peptide: LYNISVPGLQTNWPQS
notes: LATS1, human, residues 421-436; source: synthetic peptide (GeneCust)
As to B18, the Kd in [2] worked out at 149 ± 5 µM.

B19: GCM2(274–289) peptide (peptide)
peptide: SYELANPGYTNSSPYP
notes: GCM2, human, residues 274-289; source: synthetic peptide (GeneCust)
As to B19, the Kd is 205 ± 11 µM in test [3], 38 ± 3 µM in test [2] and 85 ± 3 µM in test [4].

B20: RIMS1(1405–1420) peptide (peptide)
peptide: MYTLEHNDGSQSDTAV
notes: RIMS1, human, residues 1405-1420; source: synthetic peptide (GeneCust)
B20: binding in [2] was put at a Kd of 564 ± 5 µM.

The values above are taken from publication PMC10249358, “Elucidation of Short Linear Motif-Based Interactions of the FERM Domains of Ezrin, Radixin, Moesin, and Merlin” (Biochemistry, 2023).
